Source: US20150140022A1 (FRAUNHOFER GESELLSCHAFT ZUR FOERDERUNG DER ANGEWANDTEN …, published 2015)

Experiments:
CD30 [1] = target: T1, CD30 (human, UniProt P28908 19-595); test: flow cytometry on L540 cells (lacking EGFR but expressing CD30), anti-His Alexa 488 detection
T1 construct: whole, on cells; Endogenous antigen on L540 cells
T1 sequence (looked up): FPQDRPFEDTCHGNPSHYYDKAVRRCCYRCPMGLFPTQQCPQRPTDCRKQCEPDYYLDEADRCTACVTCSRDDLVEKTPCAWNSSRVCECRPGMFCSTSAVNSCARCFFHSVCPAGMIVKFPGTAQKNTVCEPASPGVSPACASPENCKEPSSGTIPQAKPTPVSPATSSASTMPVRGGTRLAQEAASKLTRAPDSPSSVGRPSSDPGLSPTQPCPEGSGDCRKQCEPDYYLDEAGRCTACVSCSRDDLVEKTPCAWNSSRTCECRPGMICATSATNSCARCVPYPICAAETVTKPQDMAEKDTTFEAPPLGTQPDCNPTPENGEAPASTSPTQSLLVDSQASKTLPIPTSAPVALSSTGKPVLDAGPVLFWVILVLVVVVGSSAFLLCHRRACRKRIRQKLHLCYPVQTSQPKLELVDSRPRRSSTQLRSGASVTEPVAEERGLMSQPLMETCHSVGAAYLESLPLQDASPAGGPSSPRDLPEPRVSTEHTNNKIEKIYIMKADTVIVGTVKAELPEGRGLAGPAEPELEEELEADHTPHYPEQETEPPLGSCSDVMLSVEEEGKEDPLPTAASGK

CD30 [2] = target: T1, CD30; test: flow cytometry on L540 cells (CD30+, EGFR-), direct fluorescence
Procedure: Flow cytometry analysis was carried out after incubating 4×10⁵ cells with each fusion protein for 20 min at […] in PBS. […] As a control, scFv-Ki4-SNAP was labeled with BG-VistaGreen (black curve) and its binding activity was tested against A431, L540 and CHO-K1 cells (filled gray curves). […] As a control, scFv-Ki4-SNAP labeled with BG-Ce6 (black curve) was tested against A431, L540 and CHO-K1 cells (filled gray curves).
The binding efficiency of the labeled and unlabeled fusion proteins was determined by flow cytometry using a FACSCalibur (Becton & Dickinson, Heidelberg, Germany) and CellQuest software. […] Approximately 4×10⁵ cells were incubated in 200 μL PBS containing 0.5 μg of labeled protein for 20 min on ice. The cells were then washed twice with 1.8 mL PBS in a conventional cell washer and analyzed by flow cytometry.

Binder	binding result (CD30 [1])	binding result (CD30 [2])
scFv-425-SNAP (scFv, Secreted from HEK-293T cells by an Ig kappa leader and purified by its His6 tag; not shown: SNAP-tag (hAGTm, modified human O6-alkylguanine-DNA alkyltransferase, 20 kDa)) scFv: MAQVQLQQSGAELVKPGASVKLSCKASGYTFTSHWMHWVKQRAGQGLEWIGEFNPSNGRTNYNEKFKSKATLTVDKSSSTAYMQLSSLTSEDSAVYYCASRDYDYDGRYFDYWGQGTTVTVSSGGGGSGGGGSGGGGSDIELTQSPAIMSASPGEKVTMTCSASSSVTYMYWYQQKPGSSPRLLIYDTSNLASGVPVRFSGSGSGTSYSLTISRMEAEDAATYYCQQWSSHIFTFGSGTELEIKRHHHHHH	no binding (tested: 0.5 µg/ml)	
scFv-425-SNAP-VistaGreen (scFv, BG-Vista Green dye covalently coupled to the active site of the SNAP-tag, not shown: SNAP-tag (hAGTm)) scFv: MAQVQLQQSGAELVKPGASVKLSCKASGYTFTSHWMHWVKQRAGQGLEWIGEFNPSNGRTNYNEKFKSKATLTVDKSSSTAYMQLSSLTSEDSAVYYCASRDYDYDGRYFDYWGQGTTVTVSSGGGGSGGGGSGGGGSDIELTQSPAIMSASPGEKVTMTCSASSSVTYMYWYQQKPGSSPRLLIYDTSNLASGVPVRFSGSGSGTSYSLTISRMEAEDAATYYCQQWSSHIFTFGSGTELEIKRHHHHHH		no binding (tested: 0.5 µg of labeled protein in 200 µL)
scFv-425-SNAP-Ce6 (scFv, chlorin e6 through a benzyl-PEG24 linker (BG-PEG24-Ce6) covalently coupled to the active site of the SNAP-tag, not shown: SNAP-tag (hAGTm)) scFv: MAQVQLQQSGAELVKPGASVKLSCKASGYTFTSHWMHWVKQRAGQGLEWIGEFNPSNGRTNYNEKFKSKATLTVDKSSSTAYMQLSSLTSEDSAVYYCASRDYDYDGRYFDYWGQGTTVTVSSGGGGSGGGGSGGGGSDIELTQSPAIMSASPGEKVTMTCSASSSVTYMYWYQQKPGSSPRLLIYDTSNLASGVPVRFSGSGSGTSYSLTISRMEAEDAATYYCQQWSSHIFTFGSGTELEIKRHHHHHH		no binding (tested: 0.5 µg of labeled protein in 200 µL)
